Measured values published in the supplement of paper PMC5998384.

Columns and labels:
[1] = test system: HeLa Kyoto; assay: solubility in G1/S (NP-40 vs SDS abundance) (log2 ratio); higher = more soluble; conditions: cell cycle stage: G1/S
[2] = test system: HeLa Kyoto; assay: thermal stability score vs G1/S (z-score of summed log2 fold changes over temperatures); higher = more thermally stable than in G1/S
[3] = test system: HeLa Kyoto; assay: melting temperature (median over replicates), in situ; higher = more thermally stable
[4] = test system: HeLa Kyoto; assay: solubility change mitosis vs G1/S (difference of NP-40 vs SDS log2 ratios) (log2 ratio difference); higher = more soluble in mitosis
[5] = cell cycle stage: early G1 (4.5 h after nocodazole release)
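Throughout, for melting temperature (median over replicates), in situ: HeLa Kyoto cells synchronized by double thymidine or nocodazole block, proteins quantified by TMT10plex mass spectrometry, three independent biological replicates.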
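Throughout, for solubility change mitosis vs G1/S (difference of NP-40 vs SDS log2 ratios): synchronized HeLa Kyoto cells (double thymidine block for G1/S, nocodazole release for mitosis), protein amounts in NP-40 versus SDS lysates quantified by mass spectrometry, three biological replicates.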
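Throughout, for solubility in G1/S (NP-40 vs SDS abundance): HeLa Kyoto cells arrested at G1/S by double thymidine block, proteins quantified by TMT10plex mass spectrometry in mild NP-40 versus SDS extracts, three biological replicates.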
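Throughout, for thermal stability score vs G1/S (z-score of summed log2 fold changes over temperatures): synchronized HeLa Kyoto cells, proteins quantified by TMT10plex mass spectrometry, three biological replicates, mitosis taken 0.5 h after nocodazole release, G1/S directly after double thymidine block.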

Sequence	solubility in G1/S (log2) [1]	thermal stability score [2, 5]	thermal stability score ([2]; cell cycle stage: mitosis)	melting temperature ([3]; cell cycle stage: G1/S) [°C]	melting temperature ([3]; cell cycle stage: mitosis) [°C]	solubility change mitosis (log2) [4]
MRLALLWALGLLGAGSPLPSWPLPNIGGTEEQQAESEKAPREPLEPQVLQDDLPISLKKVLQTSLPEPLRIKLELDGDSHILELLQNRELVPGRPTLVWYQPDGTRVVSEGHTLENCCYQGRVRGYAGSWVSICTCSGLRGLVVLTPERSYTLEQGPGDLQGPPIISRIQDLHLPGHTCALSWRESVHTQKPPEHPLGQRHIRRRRDVVTETKTVELVIVADHSEAQKYRDFQHLLNRTLEVALLLDTFFRPLNVRVALVGLEAWTQRDLVEISPNPAVTLENFLHWRRAHLLPRLPHDSAQLVTGTSFSGPTVGMAIQNSICSPDFSGGVNMDHSTSILGVASSIAHELGHSLGLDHDLPGNSCPCPGPAPAKTCIMEASTDFLPGLNFSNCSRRALEKALLDGMGSCLFERLPSLPPMAAFCGNMFVEPGEQCDCGFLDDCVDPCCDSLTCQLRPGAQCASDGPCCQNCQLRPSGWQCRPTRGDCDLPEFCPGDSSQCPPDVSLGDGEPCAGGQAVCMHGRCASYAQQCQSLWGPGAQPAAPLCLQTANTRGNAFGSCGRNPSGSYVSCTPRDAICGQLQCQTGRTQPLLGSIRDLLWETIDVNGTELNCSWVHLDLGSDVAQPLLTLPGTACGPGLVCIDHRCQRVDLLGAQECRSKCHGHGVCDSNRHCYCEEGWAPPDCTTQLKATSSLTTGLLLSLLVLLVLVMLGASYWYRARLHQRLCQLKGPTCQYRAAQSGPSERPGPPQRALLARGTKQASALSFPAPPSRPLPPDPVSKRLQAELADRPNPPTRPLPADPVVRSPKSQGPAKPPPPRKPLPADPQGRCPSGDLPGPGAGIPPLVVPSRPAPPPPTVSSLYL [ADAM15]	0.293	0.908	2.18	54.2	55.4	-0.0652
MRLRRLALFPGVALLLAAARLAAASDVLELTDDNFESRISDTGSAGLMLVEFFAPWCGHCKRLAPEYEAAATRLKGIVPLAKVDCTANTNTCNKYGVSGYPTLKIFRDGEEAGAYDGPRTADGIVSHLKKQAGPASVPLRTEEEFKKFISDKDASIVGFFDDSFSEAHSEFLKAASNLRDNYRFAHTNVESLVNEYDDNGEGIILFRPSHLTNKFEDKTVAYTEQKMTSGKIKKFIQENIFGICPHMTEDNKDLIQGKDLLIAYYDVDYEKNAKGSNYWRNRVMMVAKKFLDAGHKLNFAVASRKTFSHELSDFGLESTAGEIPVVAIRTAKGEKFVMQEEFSRDGKALERFLQDYFDGNLKRYLKSEPIPESNDGPVKVVVAENFDEIVNNENKDVLIEFYAPWCGHCKNLEPKYKELGEKLSKDPNIVIAKMDATANDVPSPYEVRGFPTIYFSPANKKLNPKKYEGGRELSDFISYLQREATNPPVIQEEKPKKKKKAQEDL [PDIA3]	0.299	4.82	4.63	53.3	53.7	0.000907
MRLSSLLALLRPALPLILGLSLGCSLSLLRVSWIQGEGEDPCVEAVGERGGPQNPDSRARLDQSDEDFKPRIVPYYRDPNKPYKKVLRTRYIQTELGSRERLLVAVLTSRATLSTLAVAVNRTVAHHFPRLLYFTGQRGARAPAGMQVVSHGDERPAWLMSETLRHLHTHFGADYDWFFIMQDDTYVQAPRLAALAGHLSINQDLYLGRAEEFIGAGEQARYCHGGFGYLLSRSLLLRLRPHLDGCRGDILSARPDEWLGRCLIDSLGVGCVSQHQGQQYRSFELAKNRDPEKEGSSAFLSAFAVHPVSEGTLMYRLHKRFSALELERAYSEIEQLQAQIRNLTVLTPEGEAGLSWPVGLPAPFTPHSRFEVLGWDYFTEQHTFSCADGAPKCPLQGASRADVGDALETALEQLNRRYQPRLRFQKQRLLNGYRRFDPARGMEYTLDLLLECVTQRGHRRALARRVSLLRPLSRVEILPMPYVTEATRVQLVLPLLVAEAAAAPAFLEAFAANVLEPREHALLTLLLVYGPREGGRGAPDPFLGVKAAAAELERRYPGTRLAWLAVRAEAPSQVRLMDVVSKKHPVDTLFFLTTVWTRPGPEVLNRCRMNAISGWQAFFPVHFQEFNPALSPQRSPPGPPGAGPDPPSPPGADPSRGAPIGGRFDRQASAEGCFYNADYLAARARLAGELAGQEEEEALEGLEVMDVFLRFSGLHLFRAVEPGLVQKFSLRDCSPRLSEELYHRCRLSNLEGLGGRAQLAMALFEQEQANST [CHPF2]	-0.00882	-0.504	-0.497	53.4	53	-0.00799
